Results as given in US20250313646A1 (AUGMENT BIOLOGICS, published 2025).

Experiments:
[1] = biological target: T1, full-length, biotinylated, human CD20 (Acro Biosystems) (human, UniProt P11836 1-297, biotinylated (site not stated)); assay: BLI (Octet RED96e), biotinylated CD20 on biosensor, antibody at 25 nM
T1 construct: mature; No construct limits or tags are stated for the bought reagent; also called CD20 antigen
T1 sequence (looked up): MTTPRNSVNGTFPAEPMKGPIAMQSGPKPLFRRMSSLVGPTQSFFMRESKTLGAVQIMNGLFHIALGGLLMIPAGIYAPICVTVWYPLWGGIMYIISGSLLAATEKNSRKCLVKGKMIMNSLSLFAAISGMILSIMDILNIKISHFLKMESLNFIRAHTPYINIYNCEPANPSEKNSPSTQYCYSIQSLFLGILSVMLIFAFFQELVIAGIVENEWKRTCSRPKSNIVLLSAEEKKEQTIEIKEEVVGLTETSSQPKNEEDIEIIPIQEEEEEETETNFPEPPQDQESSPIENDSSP

[2] = biological target: T1, full-length, biotinylated, human CD20 …; assay: BLI (Octet RED96e), biotinylated CD20 on biosensor, antibody at 100 nM
[3] = biological target: T1, full-length, biotinylated, human CD20 …; assay: BLI (Octet RED96e), biotinylated CD20 on biosensor, antibody at 50 nM

B1: wildtype Rituximab (antibody)
chain 1: not shown
chain 2: QIVLSQSPAILSASPGEKVTMTCRASSSVSYIHWFQQKPGSSPKPWIYATSNLASGVPVRFSGSGSGTSYSLTISRVEAEDAATYYCQQWTSNPPTFGGGTKLEIKRTVAAPSVFIFPPSDEQLKSGTASVVCLLNNFYPREAKVQWKVDNALQSGNSQESVTEQDSKDSTYSLSSTLTLSKADYEKHKVYACEVTHQGLSSPVTKSFNRGEC
Kd [1]: 171 pM | Kd [2]: 169 pM | Kd [3]: 169 pM
